Source: publication PMC6309448 (Nature, 2018)

Biological target: T1, outer membrane usher FimD (Escherichia coli, UniProt P30130 46-878)
T1 sequence: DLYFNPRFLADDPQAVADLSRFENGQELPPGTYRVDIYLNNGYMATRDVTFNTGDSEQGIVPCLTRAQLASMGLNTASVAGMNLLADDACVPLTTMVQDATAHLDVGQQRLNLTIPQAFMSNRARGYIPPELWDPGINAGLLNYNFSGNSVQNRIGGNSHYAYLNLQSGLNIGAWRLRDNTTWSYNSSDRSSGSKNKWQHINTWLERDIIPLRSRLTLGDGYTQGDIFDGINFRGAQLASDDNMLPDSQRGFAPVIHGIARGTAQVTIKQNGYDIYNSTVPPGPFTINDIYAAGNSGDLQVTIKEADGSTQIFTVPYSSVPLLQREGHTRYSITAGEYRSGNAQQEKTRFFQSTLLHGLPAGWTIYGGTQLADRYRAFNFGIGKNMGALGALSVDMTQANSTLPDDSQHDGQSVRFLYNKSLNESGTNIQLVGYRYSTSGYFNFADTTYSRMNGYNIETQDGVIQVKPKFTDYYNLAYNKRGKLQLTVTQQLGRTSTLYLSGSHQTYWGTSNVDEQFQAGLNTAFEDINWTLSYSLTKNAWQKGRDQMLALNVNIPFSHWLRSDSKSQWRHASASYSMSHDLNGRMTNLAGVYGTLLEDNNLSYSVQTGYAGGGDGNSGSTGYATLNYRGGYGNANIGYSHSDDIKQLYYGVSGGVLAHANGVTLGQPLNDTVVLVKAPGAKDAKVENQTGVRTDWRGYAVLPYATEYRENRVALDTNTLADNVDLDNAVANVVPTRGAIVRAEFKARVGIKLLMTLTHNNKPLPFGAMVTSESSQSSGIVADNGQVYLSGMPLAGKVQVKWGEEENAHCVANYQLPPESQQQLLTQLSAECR
Assay: cryo-EM structure

B1: FimC chaperone (natural protein)
chain: GVALGATRVIYPAGQKQEQLAVTNNDENSTYLIQSWVENADGVKDGRFIVTPPLFAMKGKKENTLRILDATNNQLPQDRESLFWMNVKAIPSMDKSKLTENTLQLAIISRIKLYYRPAKLALPPDQAAEKLRFRRSANSLTLINPTPYYLTVTELNAGTRVLENALVPPMGESTVKLPSDAGSNITYRTINDYGALTPKMTGVME
- binding result: binds

B2: pilus subunit FimG (natural protein)
chain: ADVTITVNGKVVAKPCTVSTTNATVDLGDLYSFSLMSAGAASAWHDVALELTNCPVGTSRVTASFSGAADSTGYYKNQGTAQNIQLELQDDSGNTLNTGATKTVQVDDSSQSAHFPLQVRALTVNGGATQGTIQAVISITYTYS
- binding result: binds
